Patent US20150086562A1 (BIOATLA, published 2015)

T1: CD22 protein expressed on the surface of Daudi cells (human, UniProt P20273 20-847)
T1 construct: whole, on cells; also called human CD22; cell surface CD22
T1 sequence (looked up): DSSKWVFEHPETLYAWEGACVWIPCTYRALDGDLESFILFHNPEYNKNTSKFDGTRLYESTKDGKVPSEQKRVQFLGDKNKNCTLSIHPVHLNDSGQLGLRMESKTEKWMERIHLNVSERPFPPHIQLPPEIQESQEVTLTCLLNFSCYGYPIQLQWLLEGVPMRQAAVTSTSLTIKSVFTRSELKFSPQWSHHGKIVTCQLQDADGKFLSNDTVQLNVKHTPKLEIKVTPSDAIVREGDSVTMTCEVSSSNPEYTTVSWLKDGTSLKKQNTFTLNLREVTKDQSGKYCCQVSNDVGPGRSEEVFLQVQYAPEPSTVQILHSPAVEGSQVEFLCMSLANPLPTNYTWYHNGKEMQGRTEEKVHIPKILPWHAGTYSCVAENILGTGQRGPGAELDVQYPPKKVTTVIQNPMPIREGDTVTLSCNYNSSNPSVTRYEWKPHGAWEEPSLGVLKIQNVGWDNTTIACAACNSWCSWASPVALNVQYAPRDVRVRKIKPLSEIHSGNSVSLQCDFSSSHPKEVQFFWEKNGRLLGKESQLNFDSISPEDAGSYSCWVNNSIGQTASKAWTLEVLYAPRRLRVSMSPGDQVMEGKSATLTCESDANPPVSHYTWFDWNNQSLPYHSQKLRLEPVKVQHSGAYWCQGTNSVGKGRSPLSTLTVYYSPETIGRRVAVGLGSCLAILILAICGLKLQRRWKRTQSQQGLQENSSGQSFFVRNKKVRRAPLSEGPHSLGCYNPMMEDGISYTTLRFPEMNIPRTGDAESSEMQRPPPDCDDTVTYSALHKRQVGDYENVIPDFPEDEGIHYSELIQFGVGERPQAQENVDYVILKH


Key:
[1] = target: T2, recombinant CD22 extracellular domain; assay: The sheet does not state the method. The column 'KD (nM)' stands beside the confocal data. The values largely repeat FIGURE 18 (SPR on recombinant CD22 extracellular domain), so the target form is taken from there.
T2 construct: Kept apart from m18, which is cell-surface CD22; also called CD22 (analyte in the BIAcore runs); CD22 ECD
Protocol: BIAcore 3000, GE Healthcare was used to determine binding curves and kinetic parameters. An anti-human Fc (1.8 mg/ml) was diluted to a concentration of 50 ug/ml in NaOAc buffer (10 mM, pH 4.8) and coupled to the carboxymethylated dextran matrix of a CM-5 sensor chip using the manufacturer's amine-coupling chemistry as described in the BIAcore systems manual. Using the surface preparation wizard aiming for 10000RU, the carboxyl groups on the sensor surfaces were first activated with NHS/EDC followed by the addition of the anti-human Fc. The remaining activated groups were blocked by the injection of 1M ethanolamine. Each of the flow cells was coupled individually. Employing these conditions, the four flow cell surfaces containing 7554-9571 RU of anti-human Fc were prepared. In preliminary experiments, it was determine that three injections (15 ul at 30 ul/min) 100 mM H₃PO₄/0.05% CHAPS would efficiently remove the bound immunoglobulin and preserve the binding capacity of the immobilized anti-human Fc.
Experiments were performed on the BIAcore 3000 at 25° C. and a flow rate of 30 ul/min. The antibody candidate was dissolved in HBS (10 mM HEPES with 0.15M NaCl, 3.4 mM EDTA, and 0.05% surfactant P20 at pH 7.4) at 5 ug/ml. The analyte, CD22, was dissolved in HBS at 0.25, 0.125, 0.062, 0.031 and 0.015 ug/ml. 3*30 ul of 5 ug/ml of antibody BA001 was flowed over its respective flow cell followed by injections of 240 ul of each CD22 concentration at 30 ul/min (association phase) and an uninterrupted 1200 seconds of buffer flow (dissociation phase). The surface of the chip was regenerated by three sequential injections of 15 ul each with 100 m M H₃PO₄/0.05% CHAPS. The injections of HBS serve as a reference (blank sensogram) for the subtraction of bulk refractive indices for analysis. Using the 1:1 model in BIAevaluation 4.1, both a local fit and global fit was done for both dissociation (kd, [s−1] and association (ka, [M⁻¹s⁻¹]) and the dissociation constant (KD, [M]) calculated (kd/ka).

[2] = target: T1, CD22 protein expressed on the surface …; assay: confocal immunofluorescence, FITC-labelled antibody on Daudi cells
Protocol: Selected antiCD22 selected anti-CD22 Mab clones VM1000, VM1001, VM1002, VM1003, VM1004, VM1005, VM1006, VM1007, VM1008, VM1009, VM1010, VM1011, VM1012, VM1013, VM1014, and VM1015 of the invention were directly conjugated to F1TC using the Zenon labeling complex (Molecular Probes) using the manufacturer's recommended procedures. Approximately 1×10e7 Daudi cells were resuspended in PBS containing 5 ug/ml labeled anti-CD22 antibody and incubated for 45 minutes on ice. Cells then washed twice in PBS-FBS solution at 0 C. Cells were then incubated in RPMI 1640 media containing 10% FBS for varying periods at 37 C, harvested and washed in PBS at 0 C. The cells were then briefly fixed in 4% paraformaldehyde solution for 5 min at room temperature, then washed in PBS containing 0.05% Triton X-100. Cell pellets were collected by centrifugation and resupended in a minimal volume of FBS neat, and then applied to glass microscope slides. Prior to analysis, slides were treated with mounting fluid containing the nuclear stain DAPI, then coverslips were applied. Confocal images were recorded using an ACAS Ultima confocal microscope (Meridian Instruments, Inc., Okemos, Mich.) and represent 1-μm sections through the center of a focal plane using a 100× oil immersion objective.
The Anti-CD22 monoclonal antibodies selected clones VM1000, VM1001, VM1002, VM1003, VM1004, VM1005, VM1006, VM1007, VM1008, VM1009, VM1010, VM1011, VM1012, VM1013, VM1014, and VM1015 of the invention were analysed for their ability to be rapidly internalized into the intracellular compartment as judged by immunoflourescent signal on the cell surface versus the intracellular endo cytotic compartment. The antibodies of the invention were compared to BA006H, and humanized version of the murine monoclonal antibody LL2. In this example, FIG. 21A, the anti-CD22 antibodies of the invention bind to CD22 protein expressed on the surface of Daudi cells by approximately 20-fold compared to BA006H as judged by relative mean fluorescence (RMF), and are virtually completely internalized within the cell with 90 minutes, localizing predominantly to within the perinuclear golgi apparatus and associated lysozomes. Shown in FIG. 21B is a chart of the RMF surface binding values obtained in this manner for individual anti-CD22 antibodies of the invention.

Binder | Kd [1] [nM] | fold surface binding by relative mean fluorescence (RMF) compared to BA006H [2] [fold]
VM1000 (antibody, V domains shown, Humanized antibody with human constant region; also called anti-CD22 Mab clone VM1000) VH: QVQLVQSGAEVKKPGASVKVSCKASGYVFTSYWLHWIRQSPSRGLEWLGYINPRNDYTEYNRIFKGRLTISKDTSKNQVVLTMTNMDPVDTATYYCARRGITTFYWGQG VL: EIVLTQSPATLSLSPGERATLSCKSSQSVLYSAVEKNYLAWYQQKPGKAPKLLIYWASTRERGVPSRFSGSGSGTDFTFTISSLQPEDIATYYCKQYLSSWTFGQG | 0.5 | ~20
VM1001 (antibody, V domains shown, Humanized antibody with human constant region; also called anti-CD22 Mab clone VM1001) VH: QVQLVQSGAEVKKPGASVKVSCKASGYVFTSYWLHWIRQSPSRGLEWLGYINPRNDYTEYNRIFKGRLTISKDTSKNQVVLTMTNMDPVDTATYYCARRGITTFYWGQG VL: EIVLTQSPATLSLSPGERATLSCKSSQSVLYSAVEKNYLAWYQQKPGQAPRLLIYWASTRERGIPDRFSGSGSGTDFTLTISRLEPEDFAVYYCKQYLSSWTFGQG | 0.22 | ~20
VM1002 (antibody, V domains shown, Humanized antibody with human constant region; also called anti-CD22 Mab clone VM1002) VH: EVQLVQSGAEVKKPGESLRISCKGSGYVFTSYWLHWVRQAPGQGLEWMGYINPRNDYTEYNRIFKGRVTITADKSTSTAYMELSSLRSEDTAVYYCARRGITTFYWGQG VL: EIVLTQSPATLSLSPGERATLSCKSSQSVLYSAVEKNYLAWYQQKPGQAPRLLIYWASTRERGIPDRFSGSGSGTDFTLTISRLEPEDFAVYYCKQYLSSWTFGQG | 0.33 | ~20
VM1004 (antibody, V domains shown, Humanized antibody with human constant region; also called anti-CD22 Mab clone VM1004) VH: EVQLVQSGAEVKKPGATVKISCKVSGYVFTSYWLHWIRQSPSRGLEWLGYINPRNDYTEYNRIFKGRFVFSLDTSVSTAYLQICSLKAEDTAVYYCARRGITTFYWGQG VL: EIVLTQSPATLSLSPGERATLSCKSSQSVLYSAVEKNYLAWYQQKPGKAPKLLIYWASTRERGIPDRFSGSGSGTDFTLTISRLEPEDFAVYYCKQYLSSWTFGQG | 0.8 | ~20
VM1003 (antibody, V domains shown, Humanized antibody with human constant region; also called anti-CD22 Mab clone VM1003) VH: EVQLVQSGAEVKKPGATVKISCKVSGYVFTSYWLHWIRQSPSRGLEWLGYINPRNDYTEYNRIFKGRFVFSLDTSVSTAYLQICSLKAEDTAVYYCARRGITTFYWGQG VL: EIVLTQSPATLSLSPGERATLSCKSSQSVLYSAVEKNYLAWYQQKPGQAPRLLIYWASTRERGIPDRFSGSGSGTDFTLTISRLEPEDFAVYYCKQYLSSWTFGQG | 0.34 | ~20
VM1006 (antibody, V domains shown, Humanized antibody with human constant region; also called anti-CD22 Mab clone VM1006) VH: QVQLVQSGAEVKKPGASVKVSCKASGYVFTSYWLHWIRQSPSRGLEWLGYINPRNDYTEYNRIFKGRFVFSLDTSVSTAYLQICSLKAEDTAVYYCARRGITTFYWGQG VL: DIQMTQSPSSLSASVGDRVTITCKSSQSVLYSAVEKNYLAWYQQKPGKAPKLLIYWASTRERGIPDRFSGSGSGTDFTLTISRLEPEDFAVYYCKQYLSSWTFGQG | – | ~20
VM1007 (antibody, V domains shown, Humanized antibody with human constant region; also called anti-CD22 Mab clone VM1007) VH: QVQLVQSGAEVKKPGASVKVSCKASGYVFTSYWLHWVRQARGQRLEWIGYINPRNDYTEYNRIFKGRVTITADKSTSTAYMELSSLRSEDTAVYYCARRGITTFYWGQG VL: AIQLTQSPSSLSASVGDRVTITCKSSQSVLYSAVEKNYLAWYQQKPGKAPKLLIYWASTRERGVPSRFSGSGSGTDFTFTISSLEAEDAATYYCKQYLSSWTFGQG | 1 | ~20
VM1011 (antibody, V domains shown, Humanized antibody with human constant region; also called anti-CD22 Mab clone VM1011) VH: QVQLQESGPGLVKPSQTLSLTCTVSGYVFTSYWLHWIRQPPGKGLEWIGYINPRNDYTEYNRIFKGRVTITADKSTSTAYMELSSLRSEDTAVYYCARRGITTFYWGQG VL: EIVLTQSPATLSLSPGERATLSCKSSQSVLYSAVEKNYLAWYQQKPGQAPRLLIYWASTRERGIPDRFSGSGSGTDFTLTISRLEPEDFAVYYCKQYLSSWTFGQG | – | ~20
